Data reported in IntAct's records for PubMed 31515488.

B1: THAP domain-containing protein 7 (Homo sapiens), Q9BT49 (parent)
chain: MPRHCSAAGCCTRDTRETRNRGISFHRLPKKDNPRRGLWLANCQRLDPSGQGLWDPASEYIYFCSKHFEEDCFELVGISGYHRLKEGAVPTIFESFSKLRRTTKTKGHSYPPGPAEVSRLRRCRKRCSEGRGPTTPFSPPPPADVTCFPVEEASAPATLPASPAGRLEPGLSSPFSDLLGPLGAQADEAGCSAQPSPERQPSPLEPRPVSPSAYMLRLPPPAGAYIQNEHSYQVGSALLWKRRAEAALDALDKAQRQLQACKRREQRLRLRLTKLQQERAREKRAQADARQTLKEHVQDFAMQLSSSMA
B2: WASH complex subunit 3 (Homo sapiens), Q9Y3C0 (parent)
chain: MDEDGLPLMGSGIDLTKVPAIQQKRTVAFLNQFVVHTVQFLNRFSTVCEEKLADLSLRIQQIETTLNILDAKLSSIPGLDDVTVEVSPLNVTSVTNGAHPEATSEQPQQNSTQDSGLQESEVSAENILTVAKDPRYARYLKMVQVGVPVMAIRNKMISEGLDPDLLERPDAPVPDGESEKTVEESSDSESSFSD
partner: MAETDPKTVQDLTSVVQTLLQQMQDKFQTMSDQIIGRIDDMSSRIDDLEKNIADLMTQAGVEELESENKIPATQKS
B3: Nuclear pore glycoprotein p62 (Homo sapiens), P37198 (parent)
chain: MSGFNFGGTGAPTGGFTFGTAKTATTTPATGFSFSTSGTGGFNFGAPFQPATSTPSTGLFSLATQTPATQTTGFTFGTATLASGGTGFSLGIGASKLNLSNTAATPAMANPSGFGLGSSNLTNAISSTVTSSQGTAPTGFVFGPSTTSVAPATTSGGFSFTGGSTAQPSGFNIGSAGNSAQPTAPATLPFTPATPAATTAGATQPAAPTPTATITSTGPSLFASIATAPTSSATTGLSLCTPVTTAGAPTAGTQGFSLKAPGAASGTSTTTSTAATATATTTSSSSTTGFALNLKPLAPAGIPSNTAAAVTAPPGPGAAAGAAASSAMTYAQLESLINKWSLELEDQERHFLQQATQVNAWDRTLIENGEKITSLHREVEKVKLDQKRLDQELDFILSQQKELEDLLSPLEELVKEQSGTIYLQHADEEREKTYKLAENIDAQLKRMAQDLKDIIEHLNTSGAPADTSDPLQQICKILNAHMDSLQWIDQNSALLQRKVEEVTKVCEGRRKEQERSFRITFD
B4: Paraneoplastic antigen Ma2 (Homo sapiens), Q9UL42 (parent)
chain: MALALLEDWCRIMSVDEQKSLMVTGIPADFEEAEIQEVLQETLKSLGRYRLLGKIFRKQENANAVLLELLEDTDVSAIPSEVQGKGGVWKVIFKTPNQDTEFLERLNLFLEKEGQTVSGMFRALGQEGVSPATVPCISPELLAHLLGQAMAHAPQPLLPMRYRKLRVFSGSAVPAPEEESFEVWLEQATEIVKEWPVTEAEKKRWLAESLRGPALDLMHIVQADNPSISVEECLEAFKQVFGSLESRRTAQVRYLKTYQEEGEKVSAYVLRLETLLRRAVEKRAIPRRIADQVRLEQVMAGATLNQMLWCRLRELKDQGPPPSFLELMKVIREEEEEEASFENESIEEPEERDGYGRWNHEGDD
partner: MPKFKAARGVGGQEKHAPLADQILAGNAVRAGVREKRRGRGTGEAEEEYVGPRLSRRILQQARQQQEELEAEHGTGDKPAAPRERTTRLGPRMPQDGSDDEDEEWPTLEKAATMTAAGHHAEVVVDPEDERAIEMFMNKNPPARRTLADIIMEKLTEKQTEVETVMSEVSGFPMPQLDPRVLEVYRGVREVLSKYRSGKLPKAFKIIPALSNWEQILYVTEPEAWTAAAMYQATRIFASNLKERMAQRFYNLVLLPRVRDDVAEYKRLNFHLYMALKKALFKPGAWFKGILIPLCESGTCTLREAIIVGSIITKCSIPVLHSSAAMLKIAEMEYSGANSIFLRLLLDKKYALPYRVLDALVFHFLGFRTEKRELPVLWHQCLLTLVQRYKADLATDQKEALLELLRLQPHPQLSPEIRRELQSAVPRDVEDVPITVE
B5: E3 ubiquitin-protein ligase RNF8 (Homo sapiens), O76064 (parent)
chain: MGEPGFFVTGDRAGGRSWCLRRVGMSAGWLLLEDGCEVTVGRGFGVTYQLVSKICPLMISRNHCVLKQNPEGQWTIMDNKSLNGVWLNRARLEPLRVYSIHQGDYIQLGVPLENKENAEYEYEVTEEDWETIYPCLSPKNDQMIEKNKELRTKRKFSLDELAGPGAEGPSNLKSKINKVSCESGQPVKSQGKGEVASTPSDNLDPKLTALEPSKTTGAPIYPGFPKVTEVHHEQKASNSSASQRSLQMFKVTMSRILRLKIQMQEKHEAVMNVKKQTQKGNSKKVVQMEQELQDLQSQLCAEQAQQQARVEQLEKTFQEEEQHLQGLEIAQGEKDLKQQLAQALQEHWALMEELNRSKKDFEAIIQAKNKELEQTKEEKEKMQAQKEEVLSHMNDVLENELQCIICSEYFIEAVTLNCAHSFCSYCINEWMKRKIECPICRKDIKSKTYSLVLDNCINKMVNNLSSEVKERRIVLIRERKAKRLF
B6: pre-mRNA splicing regulator USH1G (Homo sapiens), Q495M9 (parent)
chain: MNDQYHRAARDGYLELLKEATRKELNAPDEDGMTPTLWAAYHGNLESLRLIVSRGGDPDKCDIWGNTPLHLAASNGHLHCLSFLVSFGANIWCLDNDYHTPLDMAAMKGHMECVRYLDSIAAKQSSLNPKLVGKLKDKAFREAERRIRECAKLQRRHHERMERRYRRELAERSDTLSFSSLTSSTLSRRLQHLALGSHLPYSQATLHGTARGKTKMQKKLERRKQGGEGTFKVSEDGRKSARSLSGLQLGSDVMFVRQGTYANPKEWGRAPLRDMFLSDEDSVSRATLAAEPAHSEVSTDSGHDSLFTRPGLGTMVFRRNYLSSGLHGLGREDGGLDGVGAPRGRLQSSPSLDDDSLGSANSLQDRSCGEELPWDELDLGLDEDLEPETSPLETFLASLHMEDFAALLRQEKIDLEALMLCSDLDLRSISVPLGPRKKILGAVRRRRQAMERPPALEDTEL
partner: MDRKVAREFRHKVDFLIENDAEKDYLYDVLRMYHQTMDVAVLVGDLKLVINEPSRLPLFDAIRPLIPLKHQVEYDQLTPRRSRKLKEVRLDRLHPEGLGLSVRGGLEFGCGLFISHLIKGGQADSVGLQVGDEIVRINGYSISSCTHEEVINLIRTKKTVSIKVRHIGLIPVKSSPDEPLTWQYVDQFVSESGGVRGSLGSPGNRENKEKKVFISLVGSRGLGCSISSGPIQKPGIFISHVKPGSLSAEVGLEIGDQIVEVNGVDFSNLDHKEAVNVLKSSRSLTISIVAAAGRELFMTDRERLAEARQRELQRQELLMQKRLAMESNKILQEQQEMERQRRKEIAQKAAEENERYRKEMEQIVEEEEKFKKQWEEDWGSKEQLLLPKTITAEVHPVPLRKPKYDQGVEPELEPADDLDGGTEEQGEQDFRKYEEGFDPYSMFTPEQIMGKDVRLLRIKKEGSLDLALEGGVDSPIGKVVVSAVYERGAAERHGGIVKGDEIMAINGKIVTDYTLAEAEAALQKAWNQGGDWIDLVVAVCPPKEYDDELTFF

Variants of: B1
Conditions: with mdfi_human MDFI

Row | effect of a mutation on the interaction | Variant
1 | disrupting interaction strength | E168D

Variants of: B1
Conditions: with traf2_human TRAF2, Q12933
traf2_human TRAF2, Q12933, sequence (Q12933 whole entry): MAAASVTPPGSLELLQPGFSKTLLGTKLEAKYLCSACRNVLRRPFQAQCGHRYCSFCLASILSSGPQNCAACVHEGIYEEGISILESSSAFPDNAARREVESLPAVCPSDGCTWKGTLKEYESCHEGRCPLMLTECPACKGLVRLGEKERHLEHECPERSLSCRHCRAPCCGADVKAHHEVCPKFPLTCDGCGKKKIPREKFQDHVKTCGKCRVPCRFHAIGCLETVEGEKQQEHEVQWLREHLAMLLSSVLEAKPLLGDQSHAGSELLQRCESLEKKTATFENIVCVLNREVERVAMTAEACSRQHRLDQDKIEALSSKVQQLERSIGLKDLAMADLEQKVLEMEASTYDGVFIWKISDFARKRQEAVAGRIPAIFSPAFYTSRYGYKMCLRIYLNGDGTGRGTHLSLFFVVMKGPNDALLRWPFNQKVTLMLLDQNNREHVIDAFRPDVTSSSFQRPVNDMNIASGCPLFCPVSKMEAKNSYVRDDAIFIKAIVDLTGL

Row | effect of a mutation on the interaction | Variant
2 | with no effect | E168D

Variants of: B1
Conditions: with set_human SET

Row | effect of a mutation on the interaction | Variant
3 | with no effect | E168D

Variants of: B2
Conditions: with hsbp1_human HSBP1, O75506

Row | effect of a mutation on the interaction | Variant
4 | with no effect | F44L

Variants of: B3
Conditions: with nup58_human NUP58, Q9BVL2
nup58_human NUP58, Q9BVL2, sequence (Q9BVL2 whole entry): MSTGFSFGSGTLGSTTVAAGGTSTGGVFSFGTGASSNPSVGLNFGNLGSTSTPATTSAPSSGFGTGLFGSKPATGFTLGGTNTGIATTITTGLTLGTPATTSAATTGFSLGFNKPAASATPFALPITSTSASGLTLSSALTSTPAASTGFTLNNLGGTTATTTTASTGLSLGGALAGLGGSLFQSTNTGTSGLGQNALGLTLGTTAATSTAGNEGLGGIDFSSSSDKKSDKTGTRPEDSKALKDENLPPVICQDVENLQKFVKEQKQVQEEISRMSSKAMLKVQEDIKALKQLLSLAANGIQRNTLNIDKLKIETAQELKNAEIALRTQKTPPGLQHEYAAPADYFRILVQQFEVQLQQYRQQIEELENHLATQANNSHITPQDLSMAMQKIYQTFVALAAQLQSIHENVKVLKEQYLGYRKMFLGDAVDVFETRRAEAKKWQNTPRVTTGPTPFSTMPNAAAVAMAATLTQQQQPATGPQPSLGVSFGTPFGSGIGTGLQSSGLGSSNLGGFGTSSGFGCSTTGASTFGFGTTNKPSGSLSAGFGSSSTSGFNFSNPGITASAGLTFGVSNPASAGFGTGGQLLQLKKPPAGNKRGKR

Row | effect of a mutation on the interaction | Variant
5 | with no effect | A279T

Variants of: B3
Conditions: with hsf2_human HSF2, Q03933
hsf2_human HSF2, Q03933, sequence (Q03933 whole entry): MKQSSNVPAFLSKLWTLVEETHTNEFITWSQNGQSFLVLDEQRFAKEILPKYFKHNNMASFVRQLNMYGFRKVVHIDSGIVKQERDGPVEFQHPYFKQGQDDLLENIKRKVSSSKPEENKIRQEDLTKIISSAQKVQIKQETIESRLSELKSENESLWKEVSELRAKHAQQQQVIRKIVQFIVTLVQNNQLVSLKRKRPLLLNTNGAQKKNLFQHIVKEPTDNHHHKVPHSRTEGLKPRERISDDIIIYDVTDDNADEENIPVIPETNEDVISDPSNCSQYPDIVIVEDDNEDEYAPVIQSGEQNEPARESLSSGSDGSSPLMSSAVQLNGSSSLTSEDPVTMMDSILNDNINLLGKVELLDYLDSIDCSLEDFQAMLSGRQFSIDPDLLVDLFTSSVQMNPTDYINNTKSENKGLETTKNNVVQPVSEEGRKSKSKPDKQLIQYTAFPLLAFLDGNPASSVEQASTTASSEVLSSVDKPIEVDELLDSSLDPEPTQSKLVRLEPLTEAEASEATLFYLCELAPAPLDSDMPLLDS

Row | effect of a mutation on the interaction | Variant
6 | with no effect | A279T

Variants of: B3
Conditions: with ntf2_human NUTF2, P61970
ntf2_human NUTF2, P61970, sequence (P61970 whole entry): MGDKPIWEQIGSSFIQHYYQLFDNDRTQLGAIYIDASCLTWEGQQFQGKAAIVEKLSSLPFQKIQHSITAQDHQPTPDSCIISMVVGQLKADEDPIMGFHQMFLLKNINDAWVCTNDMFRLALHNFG

Row | effect of a mutation on the interaction | Variant
7 | with no effect | A279T

Variants of: B3
Conditions: with abi2_human ABI2, Q9NYB9
abi2_human ABI2, Q9NYB9, sequence (Q9NYB9 whole entry): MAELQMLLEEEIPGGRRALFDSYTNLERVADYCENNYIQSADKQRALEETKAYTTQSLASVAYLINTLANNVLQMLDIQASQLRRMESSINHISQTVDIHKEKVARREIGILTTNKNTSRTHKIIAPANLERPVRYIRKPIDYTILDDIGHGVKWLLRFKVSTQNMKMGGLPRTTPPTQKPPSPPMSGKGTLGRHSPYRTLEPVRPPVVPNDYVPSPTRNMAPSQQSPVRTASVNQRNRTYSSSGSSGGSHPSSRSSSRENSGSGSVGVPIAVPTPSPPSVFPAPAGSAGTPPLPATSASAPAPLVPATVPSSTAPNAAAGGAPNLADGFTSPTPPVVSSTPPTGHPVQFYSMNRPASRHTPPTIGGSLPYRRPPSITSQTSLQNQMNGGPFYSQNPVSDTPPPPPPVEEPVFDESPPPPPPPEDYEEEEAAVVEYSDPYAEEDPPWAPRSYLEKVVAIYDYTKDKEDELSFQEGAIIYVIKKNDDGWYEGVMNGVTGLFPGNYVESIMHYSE

Row | effect of a mutation on the interaction | Variant
8 | with no effect | A279T

Variants of: B4
Conditions: with byst_human BYSL

Row | effect of a mutation on the interaction | Variant
9 | with no effect | E186K

Variants of: B5
Conditions: with sept3_human SEPTIN3, Q9UH03
sept3_human SEPTIN3, Q9UH03, sequence (Q9UH03 whole entry): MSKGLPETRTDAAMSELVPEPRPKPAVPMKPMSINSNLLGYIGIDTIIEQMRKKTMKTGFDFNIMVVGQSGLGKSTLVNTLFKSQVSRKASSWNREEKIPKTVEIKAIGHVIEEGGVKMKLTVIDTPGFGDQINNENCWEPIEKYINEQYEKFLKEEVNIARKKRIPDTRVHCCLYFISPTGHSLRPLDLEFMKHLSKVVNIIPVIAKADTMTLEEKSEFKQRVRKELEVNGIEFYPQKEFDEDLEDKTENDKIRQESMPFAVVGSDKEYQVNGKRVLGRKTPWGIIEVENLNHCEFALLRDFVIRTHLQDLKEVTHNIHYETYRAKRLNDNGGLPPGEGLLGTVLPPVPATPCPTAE

Row | effect of a mutation on the interaction | Variant
10 | with no effect | V310L

Variants of: B5
Conditions: with wasl_human WASL

Row | effect of a mutation on the interaction | Variant
11 | with no effect | V310L

Variants of: B6
Conditions: with ush1c_human USH1C

Row | effect of a mutation on the interaction | Variant
12 | with no effect | L420V
